Reference: the supplement of paper PMC10126150
± gives the standard deviation of the averaged measurements.

What follows are sequences tested on ATP (assay: switch fluorescence ratio, 500 uM ATP over buffer (Cy3 cluster intensity, sum of 5 cycles each) (fold (ratio)); higher = stronger signal-on switching upon ATP binding; sequences stand for … in TCGTCGGCAGCGTCAGATGTGTATAAGAGACAGTTTTTTTTTTTTTTTTTTTTTTTTT…TC). Conditions: aptamer strand: ATP DNA aptamer (quencher-CACCTGGGGGAGTATTGCGGAGGAAGG + anchor), 100 nM annealed; ATP concentration: 500 uM.
Outline: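 Exposure to 500 uM ATP lasted 15 min at 22 °C before imaging, and a selection-buffer image was taken beforehand, for Cy3-labelled switching-strand clusters on a modified Illumina MiSeq flow-cell annealed to 100 nM quencher-labelled ATP aptamer. Five buffer/ATP cycles were run with NaOH stripping and re-annealing between them. The fluorescence ratio per cluster is summed target-cycle over summed buffer-cycle Cy3 intensity, averaged per switch-domain sequence. Clusters outside 100-1000 RFU were excluded.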

| Sequence | switch fluorescence ratio |
| --- | --- |
| CGTAGGATTG | 1.02 ± 0.03 |
| TTTGCTTTTT | 1 ± 0.036 |
| AAGAAATTAC | 1.06 ± 0.028 |
| TCGGGACATA | 1.02 ± 0.041 |
| CACGGGGGAA | 1.03 ± 0.029 |
| AGAGCGTTAG | 1.02 ± 0.051 |
| AGTTTCGCTA | 0.992 ± 0.024 |
| TCGATCTTGG | 0.988 ± 0.011 |
| AGGGACTGTG | 1.01 ± 0.073 |
| AGGGGGGGGC | 1.04 ± 0.13 |
| GCGCTCGTAC | 2.27 ± 0.15 |
| GCTGGAACTG | 1.06 ± 0.14 |
| GGGGTTGCCG | 0.992 ± 0.034 |
| GACGGTAGTT | 1.01 ± 0.047 |
| ATATTTGGCC | 0.974 ± 0.021 |
| TCGGGAGCGT | 1.01 ± 0.033 |
| TTTGAGGGCT | 1.006 ± 0.0023 |
| GGGTTAGGTT | 1.01 ± 0.064 |
| AAAACCGCGA | 1.59 ± 0.28 |
| GTTTGCGCTT | 1.01 ± 0.021 |
| TGGGCATATG | 0.993 ± 0.014 |
| GGGAGTGTGT | 0.986 ± 0.039 |
| ACCGCTGGTT | 0.97 ± 0.014 |

| Sequence | switch fluorescence ratio |
| --- | --- |
| TTAATAAGCT | 0.978 ± 0.022 |
| AAATACCCAG | 1.04 ± 0.034 |
| TCATTGATCG | 0.987 ± 0.011 |
| GGAGTTGCGC | 1.03 ± 0.043 |
| AGGCCTTCGA | 1.003 ± 0.0083 |
| AGGGAAAGGG | 1.02 ± 0.02 |
| GCCCCGGGGT | 1.03 ± 0.056 |
| TTGATCGATG | 0.9886 ± 0.0068 |
| TACCTTGTCT | 1.04 ± 0.042 |
| ACAGAAGCTT | 1.03 ± 0.015 |
| TGGGAAAGCA | 1 ± 0.012 |
| GGTTGAGCGG | 0.993 ± 0.011 |
| ACTCAAGGCT | 1.07 ± 0.049 |
| CCAGTAGTCC | 1.14 ± 0.0031 |
| ATTTAGTTCT | 0.981 ± 0.027 |
| ATGCCCGTCG | 1.06 ± 0.043 |
| ACAATCCGGG | 1.01 ± 0.032 |
| CCACCATATT | 1.07 ± 0.039 |
| ATGACGCGGG | 0.959 ± 0.023 |
| TTTGAAGCTA | 2.19 ± 1.9 |
| TCGCGAAATG | 0.968 ± 0.025 |
| GGGGAGGTTC | 1 ± 0.031 |
| TTCGTAAGTT | 0.99485 ± 0.00084 |

| Sequence | switch fluorescence ratio |
| --- | --- |
| GTTAGCAAGG | 1.08 ± 0.018 |
| AGTTTTTCGT | 1.01 ± 0.019 |
| ACACTTGCGC | 1.02 ± 0.038 |
| ACTAATAGTC | 1.02 ± 0.038 |
| TGGAGTAGGG | 0.9874 ± 0.0062 |
| GTGTGGAGGA | 1.03 ± 0.037 |
| ATTTGGATGC | 1.01 ± 0.042 |
| GTTATTTTTT | 0.987 ± 0.028 |
| CACGAGATAA | 1.11 ± 0.079 |
| AAAATGAACG | 1.08 ± 0.047 |
| CAGCCGGGTG | 1.3412 ± 0.0003 |
| AAGTATAATG | 1.02 ± 0.054 |
| TTAGTTAAT | 1.02 ± 0.023 |
| TTGTAGGGTT | 1.02 ± 0.024 |
| ATAGTTTTTG | 0.993 ± 0.012 |
| CATTTTTATC | 0.992 ± 0.012 |
| AATTTGAGTG | 0.977 ± 0.032 |
| TGGGGACGGA | 1.02 ± 0.054 |
| GCGGGTATGA | 0.964 ± 0.052 |
| TAAGCTGGAG | 1.07 ± 0.14 |
| TACTTGCGGA | 1.03 ± 0.042 |
| CCCCTGGCAT | 1.42 ± 0.022 |
| TGGGTCATGA | 1.03 ± 0.034 |

| Sequence | switch fluorescence ratio |
| --- | --- |
| GTTGCGAATT | 0.971 ± 0.038 |
| AGGAAAAAGC | 1.02 ± 0.028 |
| TTTTTTCTGG | 1 ± 0.091 |
| CATGTATTGG | 0.991 ± 0.021 |
| TGGGCCGCCC | 1.07 ± 0.12 |
| TATACAATTG | 1.01 ± 0.017 |
| TGACAGTAAC | 1.25 ± 0.25 |
| TTGTAGGAGC | 0.965 ± 0.14 |
| GGGGGACAGG | 1.05 ± 0.072 |
| GATTGGATGA | 0.992 ± 0.045 |
| GACTTTTTAG | 0.9801 ± 0.0065 |
| TGAAGGAGTG | 0.955 ± 0.038 |
| GGGTTTTGTT | 1.02 ± 0.029 |
| TTTTCCAAGA | 1.09 ± 0.1 |
| AAATTGAACT | 1.03 ± 0.017 |
| TTCAGGATTT | 0.994 ± 0.038 |
| GCGGTTCGAA | 0.997 ± 0.084 |
| GTTGCAGTTA | 0.9986 ± 0.0029 |
| TTGTAAATGC | 1.26 ± 0.29 |
| GGAGTTGGGG | 0.99 ± 0.02 |
| ATCGATGGGT | 1.03 ± 0.047 |
| TTGTGCAAAT | 1.009 ± 0.006 |
| CGTACCAACC | 1.2 ± 0.029 |

| Sequence | switch fluorescence ratio |
| --- | --- |
| CGGCCCGCGA | 1.94 ± 0.96 |
| GGGGGTCGCA | 0.947 ± 0.069 |
| CGTGTGATGT | 0.973 ± 0.03 |
| AGATAGGGGA | 1.01 ± 0.025 |
| TTCATAGTGA | 0.95 ± 0.028 |
| AAAAGCGCT | 0.999 ± 0.025 |
| AGCTGGGGGA | 1.05 ± 0.015 |
| ACGCGTCAGC | 1.01 ± 0.021 |
| AAGTTCATGG | 0.973 ± 0.012 |
| GGCCAACGTA | 0.997 ± 0.021 |
| AGAGGGGGG | 0.99 ± 0.017 |
| GGCAGGTGTT | 1.73 ± 0.85 |
| TTAGATAGGA | 0.999 ± 0.01 |
| ACATCACTAA | 1.306 ± 0.0079 |
| CTGGCTAGGC | 1 ± 0.014 |
| TGAAAATTAG | 0.9688 ± 0.0049 |
| GGTAGTTTCA | 0.9966 ± 0.00047 |
| TAAGCTGGGG | 0.9861 ± 0.0052 |
| TCAATGGTAT | 1.17 ± 0.28 |
| GTTGATTATG | 0.995 ± 0.014 |
| GGGGTAAAAA | 1.01 ± 0.018 |
| CACGGTTTGC | 1.01 ± 0.021 |
| GTAGAAAGGA | 2.3 ± 1.8 |

| Sequence | switch fluorescence ratio |
| --- | --- |
| AAGGGGTCGT | 1 ± 0.025 |
| TAATAGTGAT | 0.983 ± 0.018 |
| TGGGTGGTCA | 0.987 ± 0.06 |
| TAGATTTTGC | 1.03 ± 0.027 |
| GAGGCTGGGG | 1 ± 0.038 |
| TCCGTTTCGG | 0.997 ± 0.047 |
| GTTGGATAGG | 1.01 ± 0.016 |
| GAATCGGGGT | 0.992 ± 0.045 |
| TTTTTAGCTT | 1.04 ± 0.028 |
| GTTATAATCC | 1.037 ± 0.0076 |
| ATCGGATTGT | 1.012 ± 0.007 |
| GTCTTTTAGG | 0.9981 ± 0.0086 |
| ACGGTTAGGG | 1.05 ± 0.043 |
| CATTGAGGTT | 0.979 ± 0.02 |
| AGCAGTGTGC | 0.9981 ± 0.0027 |
| GAAGGGGGTT | 0.973 ± 0.036 |
| TTACTGCTTT | 1.02 ± 0.025 |
| GGGATGACCT | 1.1 ± 0.044 |
| GATTGGGGTG | 1 ± 0.035 |
| AGGGTGAGCG | 0.997 ± 0.022 |
| GATCATAATG | 1.01 ± 0.021 |
| GGTTGAGGTT | 1.04 ± 0.022 |
| ATTAGGGTTT | 1.04 ± 0.061 |

| Sequence | switch fluorescence ratio |
| --- | --- |
| ATTTTTATAC | 1.02 ± 0.021 |
| CGGGTAACGG | 1.035 ± 0.0014 |
| ATCTAGAGGA | 0.985 ± 0.023 |
| GGGGGCGTGG | 1 ± 0.043 |
| ACTTTAGATT | 1.04 ± 0.0053 |
| TGTGGTGGGT | 1.042 ± 0.0097 |
| CATAATCCGA | 1.048 ± 0.0029 |
| ATGTCGTGTG | 0.9923 ± 0.0066 |
| AAGAGGGATT | 0.983 ± 0.03 |
| TCACTGTTGT | 0.993 ± 0.032 |
| GCGCAATCTG | 1.98 ± 0.52 |
| ACTGTGCGTA | 1.03 ± 0.054 |
| ATGTGGAGAC | 0.9921 ± 0.005 |
| GGGGTGGGAT | 0.998 ± 0.016 |
| CGACTCGACG | 1.013 ± 0.006 |
| ATACGATTTG | 0.971 ± 0.038 |
| AGATTCCGCT | 1.108 ± 0.011 |
| TTAAGCCGGT | 1.04 ± 0.036 |
| TGGTGGGGTT | 0.984 ± 0.02 |
